Test results taken from patent US20240287172A1 (SCIRHOM, published 2024).
Numbering of substitutions follows the chain as printed.

Tests used:
hiR2-FL-L589A-T7 = biological target: T1, hiR2-FL-L589A-T7 (human, UniProt Q6PJF5 1-856); assay: FACS on MEF-DKO cells expressing the variant, 3 µg/ml antibody
T1 sequence: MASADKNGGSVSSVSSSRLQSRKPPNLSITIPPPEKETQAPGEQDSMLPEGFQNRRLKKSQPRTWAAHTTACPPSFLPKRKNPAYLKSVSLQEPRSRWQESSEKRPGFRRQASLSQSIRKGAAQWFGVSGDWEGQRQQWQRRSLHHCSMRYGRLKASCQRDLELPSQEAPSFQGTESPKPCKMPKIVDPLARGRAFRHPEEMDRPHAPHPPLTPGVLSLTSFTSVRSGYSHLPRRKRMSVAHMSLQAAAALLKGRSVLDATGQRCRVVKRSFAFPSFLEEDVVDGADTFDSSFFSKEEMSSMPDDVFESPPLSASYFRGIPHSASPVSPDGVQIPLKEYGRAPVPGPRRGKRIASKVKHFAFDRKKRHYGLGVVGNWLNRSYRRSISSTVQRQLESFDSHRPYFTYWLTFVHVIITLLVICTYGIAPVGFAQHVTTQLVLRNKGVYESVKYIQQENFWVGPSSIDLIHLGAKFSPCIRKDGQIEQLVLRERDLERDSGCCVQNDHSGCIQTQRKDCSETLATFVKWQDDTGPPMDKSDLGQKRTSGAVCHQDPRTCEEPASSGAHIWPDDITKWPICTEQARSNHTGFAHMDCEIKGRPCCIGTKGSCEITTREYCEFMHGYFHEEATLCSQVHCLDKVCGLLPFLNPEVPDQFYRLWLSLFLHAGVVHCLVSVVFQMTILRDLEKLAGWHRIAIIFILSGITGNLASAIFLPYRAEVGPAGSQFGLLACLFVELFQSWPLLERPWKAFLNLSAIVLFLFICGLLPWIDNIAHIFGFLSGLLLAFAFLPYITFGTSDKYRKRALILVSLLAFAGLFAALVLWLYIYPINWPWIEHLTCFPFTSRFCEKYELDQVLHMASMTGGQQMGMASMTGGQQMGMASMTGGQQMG
Procedure, shortened: (§1)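 Two incubations on ice, each 1 hour: test antibody (3 μg/ml) or FACS buffer only, then PE anti-mouse F(ab′)2 at 1:100 in the dark. Centrifugation and washes used 4° C; staining quantified on a flow cytometer.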

hiR2-FL-T522A-T7 = biological target: T2, hiR2-FL-T522A-T7 (human, UniProt Q6PJF5 1-856); assay: as above
T2 sequence: T1 sequence with T522A, A589L
Procedure, shortened: as §1

B1: antibody 48 (antibody, V domains shown)
VH: QVQLQQSGTELVRPGTSVKVSCKASGYAFTNYLIEWVKQRPGQGLEWIGVINPGSGFTKYNEKFKGKATLTADKSSSTVYMHLSSLTSEDSAVYFCARGLYRAMDYWGQGTSVTVSS
VL: DIQMTQSPASQSASLGESVTITCLASQTIATWLAWYQQKPGKSPQLLIYGATTLADGVPSRFSGGGSGTKFSFKISSLQAEDFVSYYCQQLYSTPYTFGGGTKLEIK
notes: mouse IgG, kappa light chain; also called clone #48; purified antibody 48
loss of binding vs wild type (hiR2-FL-L589A-T7): ≥ 60% | loss of binding vs wild type (hiR2-FL-T522A-T7): ≥ 30%

B2: antibody 50 (antibody, V domains shown)
VH: B1 VH with T9A, T16A, T30S, V79A, H82Q
VL: B1 VL with A30G, G50A, T52A, T53S, S85N, L91I
notes: mouse IgG, kappa light chain; also called clone #50; purified antibody 50
loss of binding vs wild type (hiR2-FL-L589A-T7): ≥ 60% | loss of binding vs wild type (hiR2-FL-T522A-T7): ≥ 30%
